Target: full length human CCR8 (hCCR8) (human) (UniProt P51685)

IC50, inhibition of chemotaxis of hCCR8-transfected P815 cells to 1 nM CCL1 (intact IgG1, Cell Titer Glo): 6.53 ng/mL
B1: benchmark anti-CCR8 antibody 4A19 (Bristol Myers Squibb) (antibody, from another filing, IgG1, V domains shown)
VH: QVQLVQSGAEVKKPGASVKVSCKASGYTFTDSEMHWVRQATGQGLEWMGAIQPETGGTAYNQKFKARVTMTRDTSISTAYMELSSLRSEDTAVYYCARRRRNFDYWGQGTLVTVSS
VL: DIVMTQTPLSLSVTPGQPASISCRSSQSLFHSSGNTYLHWYLQKPGQPPQLLIYKVSNRFSGVPDRFSGSGSGTDFTLKISRVEAEDVGVYYCSQSTHVPFTFGQGTKLEIKR

— patent publication US20230279130A1
